Measured values reported in publication PMC11021448.

Key:
[1] = target: 6xHis-CtpA(ΔN37, S302A), purified alone (Pseudomonas aeruginosa); assay: negative staining EM; CtpA(S302A) 10 μg/ml on carbon grids prepared at room temperature, uranium formate stain, 2D classification
[2] = target: 6xHis-CtpA(ΔN37, ΔC6) (Pseudomonas aeruginosa); assay: SEC; CtpA or CtpAΔC6 alone incubated at 30 °C for 15 min in 20 mM Tris pH 7.5, 5 mM MgCl2, 100 mM KCl; Superdex 200 increase
[3] = target: 6xHis-CtpA(ΔN37, ΔC6) (Pseudomonas aeruginosa); assay: SEC; separately purified CtpA (or CtpAΔC6) mixed with LbcA at molar ratios 6:1, 6:2, 6:3, 30 °C for 15 min in 20 mM Tris pH 7.5, 5 mM MgCl2, 100 mM KCl; Superdex 200 increase; peaks analysed by SDS-PAGE
[4] = target: 6xHis-CtpA(ΔN37, ΔC6) (Pseudomonas aeruginosa); assay: cryo-EM 2D class averages of a cross-linked mixture; CtpAΔC6 mixed with LbcA at 6:4 molar ratio, 30 °C for 15 min in 20 mM HEPES pH 7.5, 5 mM MgCl2, 100 mM KCl, cross-linked with 1 mM BS(PEG)9 on ice overnight; 2D classification
[5] = target: CtpA as used in the gel filtration experiments (Pseudomonas aeruginosa); assay: SEC; CtpA or CtpAΔC6 alone incubated at 30 °C for 15 min in 20 mM Tris pH 7.5, 5 mM MgCl2, 100 mM KCl; Superdex 200 increase
[6] = target: CtpA as used in the gel filtration experiments (Pseudomonas aeruginosa); assay: not stated; CtpA alone on ice at 4 °C (Appendix Fig. S12a)
[7] = target: CtpA as used in the gel filtration experiments (Pseudomonas aeruginosa); assay: SEC; CtpA or CtpAΔC6 alone incubated at 30 °C for 15 min in 20 mM Tris pH 7.5, 5 mM MgCl2, 100 mM KCl; Superdex 200 increase; remark: listed apart in the source
[8] = target: CtpA as used in the gel filtration experiments (Pseudomonas aeruginosa); assay: SEC; separately purified CtpA (or CtpAΔC6) mixed with LbcA at molar ratios 6:1, 6:2, 6:3, 30 °C for 15 min in 20 mM Tris pH 7.5, 5 mM MgCl2, 100 mM KCl; Superdex 200 increase; peaks analysed by SDS-PAGE
[9] = target: CtpA(ΔN37, S302A), co-expressed with LbcA(ΔN31), 6xHis tag removed (Pseudomonas aeruginosa); assay: cryo-EM structure; co-expressed CtpA(ΔN37, S302A)-LbcA(ΔN31) complex purified by HiTrap Ni, HiTrap Q and Superose 6 Increase (20 mM Tris pH 7.5, 5 mM MgCl2, 100 mM KCl, 1 mM DTT), 0.8 mg/ml; single particle analysis; molar ratio judged by band intensity in stained SDS-PAGE gels
[10] = target: 6xHis-CtpA(ΔN37), wild type (Pseudomonas aeruginosa); assay: ITC; 250 μM LbcA in the syringe titrated into 9 μM CtpA hexamer (32 μM for CtpAΔC6 dimer) in the cell; 25 °C; 20 mM Tris pH 7.5, 5 mM MgCl2, 100 mM KCl; one-site fit
[11] = target: 6xHis-CtpA(ΔN37, S302A), purified alone (Pseudomonas aeruginosa); assay: as above
[12] = target: 6xHis-CtpA(ΔN37, ΔC6) (Pseudomonas aeruginosa); assay: as above

## 6xHis-CtpA(ΔN37, S302A), purified alone (enzyme)
[1]
  stoichiometry N: 2

## 6xHis-CtpA(ΔN37, ΔC6) (enzyme)
[2]
  stoichiometry N: 2
[3]
  stoichiometry N: 2
[4]
  stoichiometry N: 2

## CtpA as used in the gel filtration experiments (printed only as CtpA) (enzyme)
[5]
  stoichiometry N: 2
[6]
  stoichiometry N: 6
[7]
  stoichiometry N: 6
[8]
  stoichiometry N: 6

## CtpA(ΔN37, S302A), co-expressed with LbcA(ΔN31), 6xHis tag removed (enzyme)
[9]
  stoichiometry N: 6

## LbcA(ΔN31) with C-terminal 6xHis tag, purified alone (natural protein)
[10]
  Kd: 920 nM
[11]
  Kd: 760 nM
  stoichiometry N (LbcA per CtpA dimer): 1
[12]
  Kd: 850 nM
[8]
  stoichiometry N (CtpA:LbcA (molar ratio)): 2

## LbcA(ΔN31), co-expressed with CtpA(ΔN37, S302A) (natural protein)
[9]
  stoichiometry N (CtpA:LbcA (molar ratio)): 2
